Read-outs that look alike come from different tables or passages of the source. Blank lines part the entries; values can stand above or below the binder they belong to.
B2: FtsZ-WT (natural protein, E. coli, UniProt P0A9A6 1-383, looked up)
chain: MFEPMELTNDAVIKVIGVGGGGGNAVEHMVRERIEGVEFFAVNTDAQALRKTAVGQTIQIGSGITKGLGAGANPEVGRNAADEDRDALRAALEGADMVFIAAGMGGGTGTGAAPVVAEVAKDLGILTVAVVTKPFNFEGKKRMAFAEQGITELSKHVDSLITIPNDKLLKVLGRGISLLDAFGAANDVLKGAVQGIAELITRPGLMNVDFADVRTVMSEMGYAMMGSGVASGEDRAEEAAEMAISSPLLEDIDLSGARGVLVNITAGFDLRLDEFETVGNTIRAFASDNATVVIGTSLDPDMNDELRVTVVATGIGMDKRPEITLVTNKQVQQPVMDRYQQHGMAPLTQEQKPVAKVVNDNAPQTAKEPDYLDIPAFLRKQAD
B3: His-ZipA^185–328 (domain or fragment)
chain: not shown

Assays:
His-ZipA^185–328 [1] = target: B3; assay: BLI
His-ZipA^185–328 [2] = target: B3; assay: BLI; remark: listed apart in the source
His-ZipA^185–328 [3] = target: B3; assay: BLI; remark: listed apart in the source
[4] = target: the molecule itself; assay: sedimentation of polymers + electron microscopy
FtsZ-L178E = target: T1, FtsZ-L178E (E. coli, UniProt P0A9A6 1-383, L178E); assay: BLI
T1 sequence (looked up): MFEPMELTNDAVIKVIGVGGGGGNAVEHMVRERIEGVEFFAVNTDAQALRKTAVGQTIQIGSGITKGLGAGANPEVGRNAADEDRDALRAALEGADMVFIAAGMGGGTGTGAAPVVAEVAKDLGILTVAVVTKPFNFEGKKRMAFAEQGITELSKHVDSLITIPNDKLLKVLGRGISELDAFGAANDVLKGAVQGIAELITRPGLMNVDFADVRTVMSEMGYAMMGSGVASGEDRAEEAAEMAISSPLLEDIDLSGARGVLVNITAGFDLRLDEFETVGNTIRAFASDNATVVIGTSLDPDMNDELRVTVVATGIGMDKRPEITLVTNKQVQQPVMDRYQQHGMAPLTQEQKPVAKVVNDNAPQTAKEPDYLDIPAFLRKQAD

FtsZ-WT [5] = target: B2; assay: BLI
FtsZ-WT [6] = target: B2; assay: BLI; remark: listed apart in the source
FtsZ-WT [7] = target: B2; assay: BLI; remark: listed apart in the source
His-FtsZ = target: T2, His-FtsZ (E. coli, UniProt P0A9A6 1-383); assay: BLI
T2 sequence (looked up): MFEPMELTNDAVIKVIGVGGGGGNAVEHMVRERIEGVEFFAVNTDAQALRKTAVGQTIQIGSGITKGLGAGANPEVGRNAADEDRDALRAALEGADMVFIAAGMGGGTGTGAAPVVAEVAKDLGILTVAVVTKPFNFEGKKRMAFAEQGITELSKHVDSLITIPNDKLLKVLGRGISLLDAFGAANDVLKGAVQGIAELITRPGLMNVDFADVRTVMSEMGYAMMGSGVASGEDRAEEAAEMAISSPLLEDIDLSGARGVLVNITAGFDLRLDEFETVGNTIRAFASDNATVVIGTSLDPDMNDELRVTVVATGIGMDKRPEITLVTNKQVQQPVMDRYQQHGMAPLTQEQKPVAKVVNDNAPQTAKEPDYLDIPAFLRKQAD

Binder: KEPDYLDIPAFLRKQAD (domain or fragment, E. coli, UniProt P0A9A6 367-383, looked up) [MalE-CCTP]
Kd (His-ZipA^185–328 [1]): 30.8 ± 4.7 µM

Binder: B2
binding result [4]: binds

Binder: B3
Kd (FtsZ-L178E): 5.3 ± 0.7 µM
Kd (FtsZ-WT [5]): 420 ± 100 nM
Kd (FtsZ-WT [6]): 770 ± 100 nM

Binder: DYLDIPAFLRKQAD (peptide, UniProt P0A9A6 370-383, looked up) [CCTP (14 amino acids)]
Kd (His-ZipA^185–328 [1]): 140 ± 22 µM

B6: FtsZ-360 (domain or fragment, E. coli, UniProt P0A9A6 1-360, looked up)
chain: MFEPMELTNDAVIKVIGVGGGGGNAVEHMVRERIEGVEFFAVNTDAQALRKTAVGQTIQIGSGITKGLGAGANPEVGRNAADEDRDALRAALEGADMVFIAAGMGGGTGTGAAPVVAEVAKDLGILTVAVVTKPFNFEGKKRMAFAEQGITELSKHVDSLITIPNDKLLKVLGRGISLLDAFGAANDVLKGAVQGIAELITRPGLMNVDFADVRTVMSEMGYAMMGSGVASGEDRAEEAAEMAISSPLLEDIDLSGARGVLVNITAGFDLRLDEFETVGNTIRAFASDNATVVIGTSLDPDMNDELRVTVVATGIGMDKRPEITLVTNKQVQQPVMDRYQQHGMAPLTQEQKPVAKVVND
binding result [4]: binds

The remaining lines, values ahead:

Kd (His-ZipA^185–328 [2]): 11.7 ± 5.2 µM
Kd (His-ZipA^185–328 [3]): 1400 ± 200 nM
B1: MinDΔ10-linker-CCTP (other, E. coli, UniProt P0AEZ3 1-260, looked up)
chain: MARIIVVTSGKGGVGKTTSSAAIATGLAQKGKKTVVIDFDIGLRNLDLIMGCERRVVYDFVNVIQGDATLNQALIKDKRTENLYILPASQTRDKDALTREGVAKVLDDLKAMDFEFIVCDSPAGIETGALMALYFADEAIITTNPEVSSVRDSDRILGILASKSRRAENGEEPIKEHLLLTRYNPGRVSRGDMLSMEDVLEILRIKLVGVIPEDQSVLRASNQGEPVILDINADAGKAYADTVERLLGEERPFRFIEEEKPEITLVTNKQVQQPVMDRYQQHGMAPLTQEQKPVAKVVNDNAPQTAKEPDYLDIPAFLRKQAD

binding result (FtsZ-WT [7]): binds
B4: His-SlmA/SBS (natural protein, E. coli, UniProt P0C093 1-198, looked up)
chain: MAEKQTAKRNRREEILQSLALMLESSDGSQRITTAKLAASVGVSEAALYRHFPSKTRMFDSLIEFIEDSLITRINLILKDEKDTTARLRLIVLLLLGFGERNPGLTRILTGHALMFEQDRLQGRINQLFERIEAQLRQVLREKRMREGEGYTTDETLLASQILAFCEGMLSRFVRSEFKYRPTDDFDARWPLIAAQLQ

Kd (His-FtsZ): 8.1 ± 1.3 µM
B5: ZipA^185–328 (untagged) (domain or fragment)
chain: not shown
